These results are taken from publication PMC8260561 (Cell Reports, 2021).

A word on the EC50: it is the concentration giving half of the maximal effect. The low end stands for a more potent agent, the high end for a less potent agent.

The target in the test is S1-mFc (SARS-CoV-2 S1 subunit, fusion protein with murine Fc part) (SARS-CoV-2 Wuhan-Hu-1 (MN908947), UniProt P0DTC2). The experiment in a line: ELISA. A general note: An ELISA detects its analyte on a solid surface through an enzyme-linked reagent.

B1: STE90-C11 IgG (human IgG1 with silenced Fc) (antibody, V domains shown)
VH: QVQLVESGGGLVQPGGSLRLSCAASGLTVSSNYMSWVRQAPGKGLEWVSVIYSGGSTYYADSVKGRFTISRDDSKNTLYLQMNSLRAEDTAVYYCARDVADAFDIWGQGTMVTVSS
VL: DIVMTQSPSFLSASVGDRVTITCRASQGISSYLAWYQQKPGKAPKLLIYAASTLQSGVPSRFSGSGSGTEFTLTISSLQPEDFATYYCQQLNSYPPFTFGPGTKVDIK
Take B1: a half-maximal effect (EC50) was put at 0.2 nM.
